Results taken from patent publication US20170363643A1.
Values belong to the substance of their own block, whether it stands above or below them.

Columns and labels:
[1] = molecular target: His-tagged recombinant human SMN protein (ProteinTech, catalog # ag14333) (human) (UniProt Q16637); test: BLI (BLItz), His-tagged SMN immobilised on the biosensor tip, antibody in solution
[2] = molecular target: His-tagged recombinant human SMN protein (ProteinTech, catalog # ag14333) (human) (UniProt Q16637); test: Erenna sandwich assay, capture PT 60154-1-Ig; SMN 10 pg/mL, MPs 10 µg/well, Det Ab 500 ng/mL, Cap Ab/MP 25 µg/mg
[3] = molecular target: His-tagged recombinant human SMN protein (ProteinTech, catalog # ag14333) (human) (UniProt Q16637); test: Erenna sandwich assay, capture PT 60154-1-Ig; SMN 10 pg/mL, MPs 5 µg/well, Det Ab 1000 ng/mL, Cap Ab/MP 25 µg/mg
[4] = molecular target: His-tagged recombinant human SMN protein (ProteinTech, catalog # ag14333) (human) (UniProt Q16637); test: Erenna sandwich assay, capture PT 60154-1-Ig; SMN 10 pg/mL, MPs 10 µg/well, Det Ab 1000 ng/mL, Cap Ab/MP 12.5 µg/mg
[5] = molecular target: His-tagged recombinant human SMN protein (ProteinTech, catalog # ag14333) (human) (UniProt Q16637); test: Erenna sandwich assay, capture PT 60154-1-Ig; SMN 10 pg/mL, MPs 5 µg/well, Det Ab 100 ng/mL, Cap Ab/MP 25 µg/mg
[6] = molecular target: His-tagged recombinant human SMN protein (ProteinTech, catalog # ag14333) (human) (UniProt Q16637); test: Erenna sandwich assay, capture PT 60154-1-Ig; SMN 10 pg/mL, MPs 5 µg/well, Det Ab 50 ng/mL, Cap Ab/MP 25 µg/mg
[7] = molecular target: His-tagged recombinant human SMN protein (ProteinTech, catalog # ag14333) (human) (UniProt Q16637); test: Erenna sandwich assay, capture PT 60154-1-Ig; SMN 10 pg/mL, MPs 10 µg/well, Det Ab 500 ng/mL, Cap Ab/MP 12.5 µg/mg
[8] = molecular target: His-tagged recombinant human SMN protein (ProteinTech, catalog # ag14333) (human) (UniProt Q16637); test: Erenna sandwich assay, capture PT 60154-1-Ig; SMN 10 pg/mL, MPs 10 µg/well, Det Ab 100 ng/mL, Cap Ab/MP 12.5 µg/mg
[9] = molecular target: His-tagged recombinant human SMN protein (ProteinTech, catalog # ag14333) (human) (UniProt Q16637); test: Erenna sandwich assay, capture PT 60154-1-Ig; SMN 10 pg/mL, MPs 10 µg/well, Det Ab 50 ng/mL, Cap Ab/MP 25 µg/mg
[10] = molecular target: His-tagged recombinant human SMN protein (ProteinTech, catalog # ag14333) (human) (UniProt Q16637); test: Erenna sandwich assay, capture PT 60154-1-Ig; SMN 10 pg/mL, MPs 10 µg/well, Det Ab 100 ng/mL, Cap Ab/MP 25 µg/mg
[11] = molecular target: His-tagged recombinant human SMN protein (ProteinTech, catalog # ag14333) (human) (UniProt Q16637); test: Erenna sandwich assay, capture PT 60154-1-Ig; SMN 10 pg/mL, MPs 5 µg/well, Det Ab 50 ng/mL, Cap Ab/MP 12.5 µg/mg
[12] = molecular target: His-tagged recombinant human SMN protein (ProteinTech, catalog # ag14333) (human) (UniProt Q16637); test: Erenna sandwich assay, capture PT 60154-1-Ig; SMN 10 pg/mL, MPs 5 µg/well, Det Ab 500 ng/mL, Cap Ab/MP 12.5 µg/mg
[13] = molecular target: His-tagged recombinant human SMN protein (ProteinTech, catalog # ag14333) (human) (UniProt Q16637); test: Erenna sandwich assay, capture PT 60154-1-Ig; SMN 10 pg/mL, MPs 5 µg/well, Det Ab 500 ng/mL, Cap Ab/MP 25 µg/mg
[14] = molecular target: His-tagged recombinant human SMN protein (ProteinTech, catalog # ag14333) (human) (UniProt Q16637); test: Erenna sandwich assay, capture PT 60154-1-Ig; SMN 10 pg/mL, MPs 10 µg/well, Det Ab 50 ng/mL, Cap Ab/MP 12.5 µg/mg
[15] = molecular target: His-tagged recombinant human SMN protein (ProteinTech, catalog # ag14333) (human) (UniProt Q16637); test: Erenna sandwich assay, capture PT 60154-1-Ig; SMN 10 pg/mL, MPs 10 µg/well, Det Ab 1000 ng/mL, Cap Ab/MP 25 µg/mg
[16] = molecular target: His-tagged recombinant human SMN protein (ProteinTech, catalog # ag14333) (human) (UniProt Q16637); test: Erenna sandwich assay, capture PT 60154-1-Ig; SMN 10 pg/mL, MPs 5 µg/well, Det Ab 100 ng/mL, Cap Ab/MP 12.5 µg/mg
[17] = molecular target: His-tagged recombinant human SMN protein (ProteinTech, catalog # ag14333) (human) (UniProt Q16637); test: Erenna sandwich assay, capture PT 60154-1-Ig; SMN 10 pg/mL, MPs 5 µg/well, Det Ab 1000 ng/mL, Cap Ab/MP 12.5 µg/mg

Sequence of UniProt Q16637 (Q16637 whole entry): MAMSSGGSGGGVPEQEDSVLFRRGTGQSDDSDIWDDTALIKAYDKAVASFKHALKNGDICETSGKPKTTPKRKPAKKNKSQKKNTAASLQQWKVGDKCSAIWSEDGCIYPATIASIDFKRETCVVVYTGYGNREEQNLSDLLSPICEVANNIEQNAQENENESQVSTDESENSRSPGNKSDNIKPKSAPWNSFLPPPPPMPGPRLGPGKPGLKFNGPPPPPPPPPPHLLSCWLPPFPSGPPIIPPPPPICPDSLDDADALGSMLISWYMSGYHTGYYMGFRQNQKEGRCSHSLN

kon [1]: 637000 M⁻¹ s⁻¹
Substance: BD Biosciences anti-SMN (catalog #610647) (antibody)

Kd [1]: < 0.1 nM | koff [1]: < 1e-07 s⁻¹ | kon [1]: 12300 M⁻¹ s⁻¹
Substance: Enzo anti-SMN1 (catalog # ADI-NBA-202-200) (antibody)

detected events (DE) (detected events) [2]: 2140 | detected events (DE) (detected events) [3]: 3440 | detected events (DE) (detected events) [4]: 3720 | detected events (DE) (detected events) [5]: 481 | detected events (DE) (detected events) [6]: 256 | detected events (DE) (detected events) [7]: 2180 | detected events (DE) (detected events) [8]: 523 | detected events (DE) (detected events) [9]: 269 | detected events (DE) (detected events) [10]: 505 | detected events (DE) (detected events) [11]: 231 | detected events (DE) (detected events) [12]: 1960 | detected events (DE) (detected events) [13]: 2040 | detected events (DE) (detected events) [14]: 302 | detected events (DE) (detected events) [15]: 3370 | Kd [1]: < 0.001 nM | koff [1]: < 1e-07 s⁻¹ | kon [1]: 105000 M⁻¹ s⁻¹ | detected events (DE) (detected events) [16]: 501 | detected events (DE) (detected events) [17]: 3570
Substance: Millipore anti-SMN2 (catalog # MABE230) (antibody)

Kd [1]: < 1 nM | koff [1]: < 1e-07 s⁻¹ | kon [1]: 884 M⁻¹ s⁻¹
Substance: ProteinTech anti-SMN2 (catalog #60154-2-Ig) (antibody)
